Reference: patent US20230399393A1, “METHODS TO EXTEND HEALTH-SPAN AND TREAT AGE-RELATED DISEASES” (National University of Singapore, priority 2020, published 2023)

Columns and labels:
C57Bl/6J mice [1] = assay: Body-composition assessment via echo MRI; type: in vivo, mouse; settings: baseline age 55 weeks vs 108-109 weeks, vs IgG control
Method: From age 55 weeks (human equivalent of ˜45 years old (i.e. middle age)) to age 110 weeks (human equivalent of ˜75 years old), mice were administered with 40 mg/kg of either X203 or isotype-matched control IgG via intra-peritoneal injection every 3 weeks.
Mice also underwent body-composition assessment via echo MRI both at baseline (age 55 weeks) and at 108-109 weeks. This enabled calculation of the change in body fat mass and lean (muscle) mass in the X203 and IgG control treatment groups. Gastrocnemius and soleus muscles were also harvested from the mice at age 110 weeks and their weights were recorded. Data were analysed by 2-way ANOVA.
End-point total body fat and lean mass measurements were performed 2 days prior to sacrifice by EchoMRI analysis using 4in1 Body Composition Analyzer for Live Small Animal.

C57Bl/6J mice [2] = assay: Metabolic function: serum/liver triglyceride, serum cholesterol, serum hydroxybutyrate; type: in vivo, mouse
Method: C57Bl/6J mice were randomised to receive either X203 or IgG control antibody at a dose of 40 mg/kg via IP injection every 3 weeks from age 55 weeks to age 110 weeks, and serum triglyceride, liver triglyceride, serum cholesterol and serum p-hydroxybutyrate levels were measured using Triglyceride Assay Kit (ab65336, Abcam), Cholesterol Assay Kit (ab65390, Abcam), and Beta-Hydroxybutyrate Colorimetric Assay Kit (700190; Cayman chemicals), in accordance with the manufacturer's instructions. Levels of serum triglyceride, liver triglyceride, serum cholesterol and serum p-hydroxybutyrate were also analysed in 12 week-old male and female C57Bl/6J mice, in order to determine baseline levels. Data were analysed by 2-way ANOVA.

AML12 cells = assay: In vitro model of senescence induction, qRT-PCR at day 7; type: cell-based, mouse; settings: 2 ug/ml from day 2, H2O2 0.75 mM, vs isotype-matched control IgG
Method: Senescent hepatic mouse cells were generated from cells of the mouse hepatocyte cell line AML12 as described in Tripathi et al., Star Protocols (2020) 1:100064 (hereby incorporated by reference in its entirety).
Briefly, AML12 cells were grown to 50% confluency and senescence was induced by treating the cells with a sub-lethal concentration of H2O2 (0.75 mM) for 1 h, followed by 23 h recovery per day, for a total of 7 days (as described in Tripathi et al., Star Protocols (2020) 1:100064). From day 2 onwards, 2 ug/ml of X209/X203 or isotype-matched control IgG was added to the cultures during the 23h recovery period.
Total RNA was isolated at day 7, and levels of p21 (Cdkn1a), […], Il11 and Tgfb gene expression were evaluated by qRT-PCR. Briefly, total RNA was extracted from cell lysates using Trizol (Invitrogen) followed by RNeasy column (Qiagen) purification. cDNAs were synthesized with iScript™ cDNA synthesis kit (Bio-Rad) according to manufacturer's instructions. Gene expression analysis was performed with either TaqMan (Applied Biosystems) or fast SYBR green (Qiagen) using the StepOnePlus Real-Time PCT System (Applied Biosystems) over 40 cycles. Expression data for p21 (Cdkn1a), Il1b, Il11 and Tgfb were normalised to Gapdh expression, and fold change was calculated using the 2^−ΔΔCt method.

[3] = treatment from age 55 to 110 weeks

B1: X203: mouse anti-mouse IL-11 IgG antagonist antibody; VH SEQ ID NO:22, VL SEQ ID NO:23 (antibody, V domains shown)
VH: EVQLQQSGPELVKPGASVKIPCKASGYTFTDYNMDWVKQSHGKSLEWIGDINPHNGGPIYNQKFTGKATLTVDKSSSTAYMELRSLTSEDTAVYYCARGELGHWYFDVWGTGTTVTVSS
VL: DIVLTQSPASLAVSLGQRATISCRASKSVSTSGYSYIHWYQQKPGQPPKLLIYLASNLDSGVPARFSGSGSGTDFTLNIHPVEEEDAATYYCQHSRDLPPTFGGGTKLEIK
fat mass gained (change in body fat mass) (C57Bl/6J mice [1]): significantly less
lean mass (C57Bl/6J mice [1]): significantly greater
reduction in serum triglyceride levels relative to IgG control (C57Bl/6J mice [2]; female mice, baseline 12 week old female 37 mg/dl): 47%
reduction in serum cholesterol levels relative to IgG control (C57Bl/6J mice [2]; female mice, baseline 12 week old female 90 mg/dl): 51%
reduction in liver triglyceride levels relative to IgG control (C57Bl/6J mice [2]; female mice, baseline 12 week old female 130 mg/g): 54%
reduction in serum triglyceride levels relative to IgG control (C57Bl/6J mice [2]; male mice, baseline 12 week old male 54 mg/dl): 65%
reduction in serum cholesterol levels relative to IgG control (C57Bl/6J mice [2]; male mice, baseline 12 week old male 149 mg/dl): 45%
reduction in liver triglyceride levels relative to IgG control (C57Bl/6J mice [2]; male mice, baseline 12 week old male 165 mg/g): 71%
aging-associated hypertriglyceridemia, steatosis (liver fat accumulation) and hypercholesterolemia (C57Bl/6J mice [2]; [3]): reduce
levels of circulating β-hydroxybutyrate (C57Bl/6J mice [2]; [3]): increase
gene expression of Il11 (AML12 cells): trended towards a reduced level
gene expression of Tgfb (AML12 cells): significantly reduce
